Experimental findings from US20200071412A1 (ROCKEFELLER UNIVERSITY, published 2020) are described below.

For assay [1], the target named is human FcγRIIa-H131 (human) (UniProt P12318). Nature of the assay: Fc variant affinity for Fcγ receptor; method not stated.
For assay [2], the target named is human FcγRIIa-R131 (human) (UniProt P12318). The assay is described as above.
The target in another assay is human FcγRIIb (human) (UniProt P31994). The assay is described as above.
Assay [3] has as its target T1, human FcγRIIa-H131 (human, UniProt P12318 34-217, limits assumed).
T1 construct: also called hCD32a/FcγRIIa-H131
T1 sequence (looked up): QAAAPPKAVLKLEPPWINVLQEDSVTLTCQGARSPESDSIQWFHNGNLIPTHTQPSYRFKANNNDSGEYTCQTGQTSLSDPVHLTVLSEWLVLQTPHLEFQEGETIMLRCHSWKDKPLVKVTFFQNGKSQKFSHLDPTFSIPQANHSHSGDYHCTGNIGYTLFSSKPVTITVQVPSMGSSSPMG
Put plainly: BLI (FORTEBIO Octet), %Rmax; supernatant 12D6-24-V9-DT-sup; receptor hCD32a/FcγRIIa-H131.

Assay [4] concerns the target T1, human FcγRIIa-H131. Nature of the assay: BLI (FORTEBIO Octet), %Rmax; supernatant 5F11-45-V9-DT-sup; receptor hCD32a/FcγRIIa-H131.

human FcγRIIb (human), sequence (P31994 43-217 limits assumed): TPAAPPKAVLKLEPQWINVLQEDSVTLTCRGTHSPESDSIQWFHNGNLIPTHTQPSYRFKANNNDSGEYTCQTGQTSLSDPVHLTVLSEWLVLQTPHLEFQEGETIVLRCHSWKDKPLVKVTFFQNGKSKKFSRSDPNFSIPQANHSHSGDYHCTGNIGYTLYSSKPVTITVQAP

As for “Fc sequence variant IgG1f (antibody with human IgG1f constant domain)”, the dissociation constant (Kd) in assay [1] was 530 nM; in assay [2], 850 nM; in the assay with human FcγRIIb (human), 3900 nM.
As for Fc sequence variant P238D (antibody), the equilibrium dissociation constant (Kd) in the assay with human FcγRIIb (human) came to 950 nM.
In the case of Fc sequence variant SE (antibody), the Kd in assay [1] stood at 520 nM; in assay [2], 22 nM; with human FcγRIIb (human), 98 nM.
With Fc sequence variant SELF (antibody), the Kd in assay [2] was 2 nM.

B1: 12D6-24-V9-DT-sup (antibody)
heavy: QVQLVQSGAEVKKPGASVKVSCKASGYTFTGYNMNWVRQAPGQGLEWMGNIDPYYGNTNYNQKFKGRVTMTTDTSTSTAYMELRSLRSDDTAVYYCARLGLQLYALDYWGQGTTVTVSSASTKGPSVFPLAPSSKSTSGGTAALGCLVKDYFPEPVTVSWNSGALTSGVHTFPAVLQSSGLYSLSSVVTVPSSSLGTQTYICNVNHKPSNTKVDKRVEPKSCDKTHTCPPCPAPELLGDDSVFLFPPKPKDTLMISRTPEVTCVVVDVSHETGEVKFNWYVDGVEVHNAKTKPREEQYNSTYRVVSVLTVLHQDWLNGKEYKCKVSNKALPRPIEKTISKAKGQPREPQVYTLPPSREEMTKNQVSLTCLVKGFYPSDIAVEWESNGQPENNYKTTPPVLDSDGSFFLYSKLTVDKSRWQQGNVFSCSVMHEALHNHYTQKSLSLSPG
light: DIVMTQTPLSLPVTPGEPASISCRSSQSLVHSNANTYLHWYLQKPGQSPQLLIYKLTNRFFGVPDRFSGSGSGTDFTLKISRVEAEDVGVYYCSQSIHVPWTFGGGTKVEIKRTVAAPSVFIFPPSDEQLKSGTASVVCLLNNFYPREAKVQWKVDNALQSGNSQESVTEQDSKDSTYSLSSTLTLSKADYEKHKVYACEVTHQGLSSPVTKSFNRGEC
notes: Tested as a supernatant of antibody producing cells; also called 12D6-24 V9 D270T; copies: 2 + 2
Turning to B1, in the assay with human FcγRIIa-H131 [3], the binding result is listed as “no binding (tested: 10 µM)”.

B2: 5F11-45-V9-DT-sup (antibody, human IgG1, kappa)
heavy chain: QVQLVQSGAEVKKPGSSVKVSCKASGYTFTDLSMHWVRQAPGQGLEWMGYITPSSGYTAYNQKFKGKTTLTADKSTSTAYMELSSLRSEDTAVYYCARLILQRGAYWGQGTLVTVSSASTKGPSVFPLAPSSKSTSGGTAALGCLVKDYFPEPVTVSWNSGALTSGVHTFPAVLQSSGLYSLSSVVTVPSSSLGTQTYICNVNHKPSNTKVDKRVEPKSCDKTHTCPPCPAPELLGDDSVFLFPPKPKDTLMISRTPEVTCVVVDVSHETGEVKFNWYVDGVEVHNAKTKPREEQYNSTYRVVSVLTVLHQDWLNGKEYKCKVSNKALPRPIEKTISKAKGQPREPQVYTLPPSREEMTKNQVSLTCLVKGFYPSDIAVEWESNGQPENNYKTTPPVLDSDGSFFLYSKLTVDKSRWQQGNVFSCSVMHEALHNHYTQKSLSLSPG
light chain: DIVLTQSPDSLAVSLGERATINCRASKNVDSYGNSFMHWYQQKPGQPPKLLIYRASNLESGVPDRFSGSGSGTDFTLTISSLQAEDVAVYYCQQSNEDPLTFGQGTKLEIKRTVAAPSVFIFPPSDEQLKSGTASVVCLLNNFYPREAKVQWKVDNALQSGNSQESVTEQDSKDSTYSLSSTLTLSKADYEKHKVYACEVTHQGLSSPVTKSFNRGEC
notes: Tested as a supernatant of antibody producing cells; also called 5F11-45 V9 D270T
In the case of B2, in the assay with human FcγRIIa-H131 [4], the binding result is listed as “no binding (tested: 10 µM)”.
